Measured values published in article PMC10855554.

How the values were obtained:
[1] = biological target: TbTim10-Myc (T. brucei); assay: co-IP; anti-Myc agarose beads, 1% digitonin-solubilised mitochondrial extract of double-tagged T. brucei cells (day 2 of induction), 50 mM Tris pH 7.2, 50 mM NaCl, 10% glycerol, 12 h at 4 °C; immunoblot, bound fraction as percent of input
[2] = biological target: TbTim8/13-HA (T. brucei); assay: co-IP; anti-HA agarose beads, 1% digitonin-solubilised mitochondrial extract of double-tagged T. brucei cells (day 2 of induction), 50 mM Tris pH 7.2, 50 mM NaCl, 10% glycerol, 12 h at 4 °C; immunoblot, bound fraction as percent of input
[3] = biological target: TbTim12-HA (T. brucei); assay: as above
[4] = biological target: TbTim9-HA (T. brucei); assay: as above
[5] = biological target: TbTim10-HA (T. brucei); assay: as above
[6] = biological target: TbTim13-HA (T. brucei); assay: as above

A percent of input co-precipitated (% of the input) [1] of 45 was found for TbTim8/13-HA (natural protein) in this work.
A percent of input co-precipitated (% of the input) [1] of 35 was found for TbTim9-HA (natural protein) in this work.
A percent of input co-precipitated (% of the input) [1] of 30 was found for TbTim12-HA (natural protein) in this work.
A percent of input co-precipitated (% of the input) [2] of 45, a percent of input co-precipitated [3] of under 10% and a percent of input co-precipitated (% of the input) [4] of 45 were found for TbTim10-Myc (natural protein) in this work. The percent of input co-precipitated [5] was under 10% and the percent of input co-precipitated [6] was under 10%.
A percent of input co-precipitated (% of the input) [1] of 25 was found for TbTim10-HA (natural protein) in this work.
